# From patent publication US20070219129A1, “hsp90 decoy peptides and uses thereof” (priority 2005, published 2007)
# Entries after “also recorded” stand apart in the source; their conditions may differ. Ends that are not written are not given here.
# Assays:
# murine facialis arteries = assay: ACh-induced vasodilation of isolated, pressurized facialis arteries after acute peptide exposure; design: species or system C57BL/6 mice; conditions: 10 μg/mL, 10 min pre-treatment, vs vehicle control
# Description: The B2 peptide was also shortened to 15 aa (AELVLEVPLEHPTLE) with the TAT PTD (RKKRRQRRR) added at the N-terminal as described by Pagano and associates.^6 (Note that the initial A residue is a linker.) This redesign made a new decoy peptide (RKKRRQRRR-AELVLEVPLEHPTLE), which we called TSB2. In designing a control peptide, TSB(Ctr) (RKKRRQRRR-AALVLAVPLAHPRLA), we reasoned that if E were important for binding, then replacing E with A would result in a peptide that would fail to bind to hsp90 or another heatshock protein essential to chaperone-dependent signaling and possibly mitochondrial function and therefore fail to impair vasodilation. To test these ideas, TSB2 and TSB(Ctr) (10 μg/mL) were incubated with separatefacialis arteries from healthy C57BL/6 male mice, whose vasodilation is mediated 100% by eNOS.^9 Ten minutes later, excess peptides were removed by changing the buffer and ACh-dose response curves of the preconstricted and pressurized vessels determined as before.^9
# B16 melanoma cells = assay: Viability of B16 melanoma cells in culture (LDH release); assay type: cell-based; conditions: even at 100 μg/mL
# [1] = target: T1, heat shock protein 90 (hsp90), endogenous in bovine aortic endothelial cells (BAEC) (bovine, UniProt A0AAA9SQM8); assay: peptide at 10 ug/mL in BAEC lysate, eNOS immunoprecipitation, western blot for hsp90
# [2] = target: T1, heat shock protein 90 (hsp90), …; assay: eNOS immunoprecipitation from treated BAEC cultures, western blot for hsp90 (FIG. 2)
Molecule,percent decrease of hsp90 association with eNOS [1] [%],further results
RKKRRQRRR-AALVLAVPLAHPRLA [TSB(Ctr)],,effect on ACh-induced vasodilation (in words) (murine facialis arteries): no effect
"RKKRRQRRRAELVLEVPLEHPTLE [TSB2, RKKRRQRRR-AELVLEVPLEHPTLE]",,viability of B16 melanoma cells (LDH release) (B16 melanoma cells): no significant effects; also recorded: no direct effect
LPLLLQAPDEAPELFVLPPE [B1 (291-311)],~80,
LVLEVPLEHPTLEWFAALGL [B3 (311-330)],~80,
RKKRRQRRRAELVLEVPLEHPTLE [TSB2],,hsp90 association with eNOS relative to PEP1-treated or untreated cultures [2]: 0.25 fraction of control level
APELFVLPPELVLEVPLEHP [B2 (301-320)],~80,
